Laboratory results: US20250145711A1 (Janssen / Centocor, published 2025)
Substitutions are numbered along the chain they refer to. Names and notes keep the numbering of the source.

B1: BC3B119 (bispecific antibody, human IgG1, kappa, L234A L235A)
chain: EIVLTQSPATLSASPGERVTLSCSASSSVSYMNWYQQKPGQAPRRWIYDSSKLASGVPARFSGSGSGRDYTLTISSLEPEDFAVYYCQQWSRNPPTFGGGTKVEIKGGSEGKSSGSGSESKSTGGSQVQLVQSGAEVKKPGSSVKVSCKASGYTFTRSTMHWVKQAPGQGLEWIGYINPSSAYTNYNQKFQGRVTLTADKSTSTAYMELSSLRSEDTAVYYCASPQVHYDYSGFPYWGQGTLVTVSSEPKSSDKTHTCPPCPAPEAAGGPSVFLFPPKPKDTLMISRTPEVTCVVVSVSHEDPEVKFNWYVDGVEVHNAKTKPREEQYNSTYRVVSVLTVLHQDWLNGKEYKCKVSNKALPAPIEKTISKAKGQPREPQVYVYPPSREEMTKNQVSLTCLVKGFYPSDIAVEWESNGQPENNYKTTPPVLDSDGSFALVSKLTVDKSRWQQGNVFSCSVMHEALHNHYTQKSLSLSPG
heavy: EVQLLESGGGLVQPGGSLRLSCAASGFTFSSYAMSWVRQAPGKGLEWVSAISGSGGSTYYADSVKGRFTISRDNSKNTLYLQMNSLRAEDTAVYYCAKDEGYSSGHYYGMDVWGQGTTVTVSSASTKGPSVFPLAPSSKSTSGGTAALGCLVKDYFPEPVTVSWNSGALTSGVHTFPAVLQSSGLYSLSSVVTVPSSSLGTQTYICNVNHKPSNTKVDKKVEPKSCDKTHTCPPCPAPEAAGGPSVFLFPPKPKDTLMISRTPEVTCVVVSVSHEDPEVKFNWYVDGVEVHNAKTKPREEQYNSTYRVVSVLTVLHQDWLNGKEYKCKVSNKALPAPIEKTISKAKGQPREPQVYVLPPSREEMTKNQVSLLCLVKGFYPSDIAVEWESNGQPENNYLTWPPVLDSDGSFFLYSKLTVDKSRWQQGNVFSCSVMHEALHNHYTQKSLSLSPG
light: EIVLTQSPGTLSLSPGERATLSCRASQSISSSFLTWYQQKPGQAPRLLIYGASSRATGIPDRFSGGGSGTDFTLTISRLEPEDFAVYYCQHYGSSPMYTFGQGTKLEIKRTVAAPSVFIFPPSDEQLKSGTASVVCLLNNFYPREAKVQWKVDNALQSGNSQESVTEQDSKDSTYSLSSTLTLSKADYEKHKVYACEVTHQGLSSPVTKSFNRGEC
notes: IgG1 BCMAxCD3; HC1: CD3B2030-N106S LH scFv-Fc; also called BC3B119.001; B2030 LH NtoS
B2: BC3B121 (bispecific antibody, human IgG1, kappa, L234A L235A)
chain: B1 chain with W46L, I174M, S232A
heavy: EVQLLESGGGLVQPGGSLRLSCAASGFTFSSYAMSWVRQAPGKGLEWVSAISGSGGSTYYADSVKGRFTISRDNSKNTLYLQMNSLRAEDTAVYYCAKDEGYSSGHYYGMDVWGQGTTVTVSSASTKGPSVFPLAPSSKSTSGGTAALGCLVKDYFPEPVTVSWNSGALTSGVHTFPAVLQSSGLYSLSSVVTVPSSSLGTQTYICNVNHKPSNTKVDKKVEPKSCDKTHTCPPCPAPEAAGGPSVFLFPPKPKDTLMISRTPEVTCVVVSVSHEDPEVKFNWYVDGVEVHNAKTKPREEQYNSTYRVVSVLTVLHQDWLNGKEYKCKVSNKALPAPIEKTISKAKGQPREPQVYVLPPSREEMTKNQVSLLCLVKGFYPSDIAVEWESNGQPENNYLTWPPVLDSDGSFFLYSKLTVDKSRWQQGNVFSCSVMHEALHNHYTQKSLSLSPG
light: B1 light
notes: IgG1 BCMAxCD3; HC1: CD3B2051-N106A LH scFv-Fc; also called BC3B121.001; B2051 LH NtoA
B3: BC3B122 (bispecific antibody, human IgG1, kappa, L234A L235A)
chain: B1 chain with W46L, I174M, S232G
heavy: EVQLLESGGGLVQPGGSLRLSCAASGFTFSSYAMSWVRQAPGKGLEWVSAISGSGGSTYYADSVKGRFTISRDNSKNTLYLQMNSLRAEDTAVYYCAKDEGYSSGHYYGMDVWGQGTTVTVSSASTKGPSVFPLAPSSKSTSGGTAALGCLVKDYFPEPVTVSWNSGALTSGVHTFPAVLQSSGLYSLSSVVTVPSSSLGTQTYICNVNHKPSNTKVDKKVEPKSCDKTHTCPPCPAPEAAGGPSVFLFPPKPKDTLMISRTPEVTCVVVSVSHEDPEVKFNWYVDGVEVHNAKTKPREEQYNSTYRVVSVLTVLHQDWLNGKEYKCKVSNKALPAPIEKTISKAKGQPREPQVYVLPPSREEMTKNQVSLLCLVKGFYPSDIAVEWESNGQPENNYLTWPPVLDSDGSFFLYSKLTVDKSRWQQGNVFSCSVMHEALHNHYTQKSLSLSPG
light: B1 light
notes: IgG1 BCMAxCD3; HC1: CD3B2051-N106G LH scFv-Fc; also called BC3B122.001; B2051 LH NtoG
B4: BC3B123 (bispecific antibody, human IgG1, kappa, L234A L235A)
chain: B1 chain with W46L, I174M, S232Q
heavy: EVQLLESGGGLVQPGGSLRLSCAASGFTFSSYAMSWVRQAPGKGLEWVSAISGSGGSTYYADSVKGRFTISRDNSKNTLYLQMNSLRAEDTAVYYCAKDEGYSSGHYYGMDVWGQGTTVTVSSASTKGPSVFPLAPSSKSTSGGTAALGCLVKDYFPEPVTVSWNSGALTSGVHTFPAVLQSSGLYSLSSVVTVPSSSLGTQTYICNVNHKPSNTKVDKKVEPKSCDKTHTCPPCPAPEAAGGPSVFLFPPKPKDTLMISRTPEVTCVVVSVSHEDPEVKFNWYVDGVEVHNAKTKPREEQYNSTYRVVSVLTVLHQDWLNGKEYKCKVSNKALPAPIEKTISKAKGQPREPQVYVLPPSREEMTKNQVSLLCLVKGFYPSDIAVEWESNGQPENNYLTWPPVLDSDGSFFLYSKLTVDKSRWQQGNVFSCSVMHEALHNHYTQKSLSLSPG
light: B1 light
notes: IgG1 BCMAxCD3; HC1: CD3B2051-N106Q LH scFv-Fc; also called BC3B123.001; B2051 LH NtoQ
B5: BC3B126 (bispecific antibody, human IgG1, kappa, L234A L235A)
chain: B1 chain with K164R, I174M, N187A, S232A
heavy: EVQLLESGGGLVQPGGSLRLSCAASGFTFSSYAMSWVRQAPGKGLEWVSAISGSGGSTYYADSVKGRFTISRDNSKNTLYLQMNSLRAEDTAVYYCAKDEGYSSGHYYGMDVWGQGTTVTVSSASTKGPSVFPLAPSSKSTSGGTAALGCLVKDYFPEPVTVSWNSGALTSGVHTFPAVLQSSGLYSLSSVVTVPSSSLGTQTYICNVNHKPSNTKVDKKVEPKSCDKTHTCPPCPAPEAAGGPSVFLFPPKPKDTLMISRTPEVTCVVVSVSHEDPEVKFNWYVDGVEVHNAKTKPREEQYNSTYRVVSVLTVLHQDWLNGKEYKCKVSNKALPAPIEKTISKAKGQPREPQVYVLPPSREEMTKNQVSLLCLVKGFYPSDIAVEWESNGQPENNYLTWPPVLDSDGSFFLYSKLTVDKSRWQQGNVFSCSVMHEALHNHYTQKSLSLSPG
light: B1 light
notes: IgG1 BCMAxCD3; HC1: CD3B2089-N106A LH scFv-Fc; also called BC3B126.001; B2089 LH NtoA
B6: BC3B127 (bispecific antibody, human IgG1, kappa, L234A L235A)
chain: B1 chain with K164R, I174M, N187A, S232G
heavy: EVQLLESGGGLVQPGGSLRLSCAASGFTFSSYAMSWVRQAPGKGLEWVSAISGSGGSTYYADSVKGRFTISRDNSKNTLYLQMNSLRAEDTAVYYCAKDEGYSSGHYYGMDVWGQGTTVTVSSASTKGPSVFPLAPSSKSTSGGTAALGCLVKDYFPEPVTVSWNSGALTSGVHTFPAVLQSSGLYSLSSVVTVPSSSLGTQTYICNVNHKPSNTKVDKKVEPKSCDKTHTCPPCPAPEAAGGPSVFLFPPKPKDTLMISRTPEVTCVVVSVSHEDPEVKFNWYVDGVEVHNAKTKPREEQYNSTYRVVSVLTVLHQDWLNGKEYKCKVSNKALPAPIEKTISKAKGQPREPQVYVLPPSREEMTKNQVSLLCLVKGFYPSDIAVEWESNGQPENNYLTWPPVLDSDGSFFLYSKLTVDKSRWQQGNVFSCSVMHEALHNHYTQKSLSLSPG
light: B1 light
notes: IgG1 BCMAxCD3; HC1: CD3B2089-N106G LH scFv-Fc; also called BC3B127.001; B2089 LH NtoG
B7: BC3B128 (bispecific antibody, human IgG1, kappa, L234A L235A)
chain: B1 chain with K164R, I174M, N187A, S232Q
heavy: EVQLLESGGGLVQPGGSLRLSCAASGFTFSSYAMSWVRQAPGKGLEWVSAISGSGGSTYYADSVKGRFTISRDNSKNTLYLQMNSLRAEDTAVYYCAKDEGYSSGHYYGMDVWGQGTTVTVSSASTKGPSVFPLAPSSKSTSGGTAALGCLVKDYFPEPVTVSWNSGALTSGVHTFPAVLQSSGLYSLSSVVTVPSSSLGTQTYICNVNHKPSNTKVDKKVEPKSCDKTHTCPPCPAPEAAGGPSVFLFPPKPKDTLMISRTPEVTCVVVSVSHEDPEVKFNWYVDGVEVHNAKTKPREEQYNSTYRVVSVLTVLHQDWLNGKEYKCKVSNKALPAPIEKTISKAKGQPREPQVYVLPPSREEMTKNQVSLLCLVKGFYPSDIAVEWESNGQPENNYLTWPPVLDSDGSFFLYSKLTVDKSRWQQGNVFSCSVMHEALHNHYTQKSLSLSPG
light: B1 light
notes: IgG1 BCMAxCD3; HC1: CD3B2089-N106Q LH scFv-Fc; also called BC3B128.001; B2089 LH NtoQ
B8: PS3B913 (bispecific antibody, human IgG1, lambda, L234A L235A)
heavy 1: QVQLQQSGPRLVRPSQTLSLTCAISGDSVFNNNAAWSWIRQSPSRGLEWLGRTYYRSKWLYDYAVSVKSRITVNPDTSRNQFTLQLNSVTPEDTALYYCARGYSSSFDYWGQGTLVTVSSASTKGPSVFPLAPSSKSTSGGTAALGCLVKDYFPEPVTVSWNSGALTSGVHTFPAVLQSSGLYSLSSVVTVPSSSLGTQTYICNVNHKPSNTKVDKKVEPKSCDKTHTCPPCPAPEAAGGPSVFLFPPKPKDTLMISRTPEVTCVVVSVSHEDPEVKFNWYVDGVEVHNAKTKPREEQYNSTYRVVSVLTVLHQDWLNGKEYKCKVSNKALPAPIEKTISKAKGQPREPQVYTLPPSREEMTKNQVSLTCLVKGFYPSDIAVEWESNGQPENNYKTTPPVLDSDGSFLLYSKLTVDKSRWQQGNVFSCSVMHEALHNHYTQKSLSLSPG
light 1: QSALTQPASVSGSPGQSITISCTGTSSNIGTYKFVSWYQQHPDKAPKVLLYEVSKRPSGVSSRFSGSKSGNTASLTISGLQAEDQADYHCVSYAGSGTLLFGGGTKLTVLGQPKAAPSVTLFPPSSEELQANKATLVCLISDFYPGAVTVAWKADSSPVKAGVETTTPSKQSNNKYAASSYLSLTPEQWKSHRSYSCQVTHEGSTVEKTVAPTECS
heavy 2: not shown
light 2: not shown
notes: FAB-A: CD3B891 (CD3B376 - K477); FAB-B: PSMB891
B9: PS3B915 (bispecific antibody, human IgG1, lambda, L234A L235A)
heavy 1: B8 heavy 1
light 1: B8 light 1
heavy 2: not shown
light 2: not shown
notes: FAB-A: CD3B891 (CD3B376 - K477); FAB-B: PSMB892
B10: PS3B931 (bispecific antibody, human IgG1, kappa, lambda, L234A L235A)
heavy 1: EVQLVESGGGLVKPGGSLRLSCAASGFTFSRYNMNWVRQAPGKGLEWVSSISTSSNYIYYADSVKGRFTFSRDNAKNSLDLQMSGLRAEDTAIYYCTRGWGPFDYWGQGTLVTVSSASTKGPSVFPLAPSSKSTSGGTAALGCLVKDYFPEPVTVSWNSGALTSGVHTFPAVLQSSGLYSLSSVVTVPSSSLGTQTYICNVNHKPSNTKVDKKVEPKSCDKTHTCPPCPAPEAAGGPSVFLFPPKPKDTLMISRTPEVTCVVVSVSHEDPEVKFNWYVDGVEVHNAKTKPREEQYNSTYRVVSVLTVLHQDWLNGKEYKCKVSNKALPAPIEKTISKAKGQPREPQVYTLPPSREEMTKNQVSLTCLVKGFYPSDIAVEWESNGQPENNYKTTPPVLDSDGSFLLYSKLTVDKSRWQQGNVFSCSVMHEALHNHYTQKSLSLSP
light 1: DIQMTQSPSSLSASVGDRVTITCRARQSIGTAIHWYQQKPGKAPKLLIKYASESISGVPSRFSGSGSGTDFTLTISSLQPEDFATYYCQQSGSWPYTFGQGTKLEIKRTVAAPSVFIFPPSDEQLKSGTASVVCLLNNFYPREAKVQWKVDNALQSGNSQESVTEQDSKDSTYSLSSTLTLSKADYEKHKVYACEVTHQGLSSPVTKSFNRGEC
heavy 2: EVQLVESGGGLVKPGGSLRLSCAASGFTFSRYNMNWVRQAPGKGLEWVSSINSNSRYIYYADSVKGRFTISRDSAKNSLYLQMNSLRAEDTAVYYCAKTMGDYYYYYGMDVWGQGTTVTVSSASTKGPSVFPLAPSSKSTSGGTAALGCLVKDYFPEPVTVSWNSGALTSGVHTFPAVLQSSGLYSLSSVVTVPSSSLGTQTYICNVNHKPSNTKVDKKVEPKSCDKTHTCPPCPAPEAAGGPSVFLFPPKPKDTLMISRTPEVTCVVVSVSHEDPEVKFNWYVDGVEVHNAKTKPREEQYNSTYRVVSVLTVLHQDWLNGKEYKCKVSNKALPAPIEKTISKAKGQPREPQVYTLPPSREEMTKNQVSLTCLVKGFYPSDIAVEWESNGQPENNYKTTPPVLDSDGSFFLYSRLTVDKSRWQQGNVFSCSVMHEALHNHYTQKSLSLSPG
light 2: SSELTQPPSVSGAPGQRVTISCAGSLSNIGAGYDVHWYQQLPGTAPKLLIYGNINRLSGVPERFSGSKSGTSASLAITGLQAEDGADYYCQSYDSSLSSYVFGTGTKVTVLGQPKAAPSVTLFPPSSEELQANKATLVCLISDFYPGAVTVAWKADSSPVKAGVETTTPSKQSNNKYAASSYLSLTPEQWKSHRSYSCQVTHEGSTVEKTVAPTECS
notes: FAB-A: CD3B2183 (CD3W245); FAB-B: PSMB890

The binders below were run against T1, Human CD3 epsilon (CD3ε), on primary human pan T cells (human, UniProt P07766 23-207) (assay: flow cytometry on human T cells, anti-human IgG Fc A647 detection).
T1 construct: Endogenous CD3 in the TCR complex on T cells; also called T-cell surface glycoprotein CD3 epsilon chain; T3E
Outline: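 Binding read by flow cytometry on live singlet cells (SYTOX green exclusion) after A647 anti-human IgG Fc secondary at 2 ug/mL, 30 min on ice. Antibody dilution series was first incubated 1 hr at 37 °C with thawed primary human pan T cells, 50,000 per well.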

T1 sequence (P07766 23-207 limits assumed): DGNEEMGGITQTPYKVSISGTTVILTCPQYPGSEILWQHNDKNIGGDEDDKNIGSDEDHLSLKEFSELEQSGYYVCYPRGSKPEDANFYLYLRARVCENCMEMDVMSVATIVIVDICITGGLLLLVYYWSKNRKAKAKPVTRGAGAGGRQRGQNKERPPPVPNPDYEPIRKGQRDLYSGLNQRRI

Binder | EC50
B1 | 300 nM
B2 | 73.3 nM
B3 | 300 nM
B4 | 65 nM
B5 | 177 nM
B6 | 300 nM
B7 | 42.9 nM

What follows are binders tested against T2, human PSMA on prostate cancer cell lines (22RV1, C4-2B) (human, UniProt Q04609 1-750) (assay: flow cytometry on C4-2B cells).
T2 construct: also called PSMA-expressing cell lines
Procedure: (§1) 22RV1 and C4-2B cells were plated at 50,000 cells per well in 50 μl of assay medium (RPMI, 10% HI FBS) in V bottom plates. Serial dilutions of antibodies were prepared in assay medium with 50 μl of antibody dilutions added to the plates containing cells. The plates were incubated for 60 min at 37° C. at which time 100 μl of staining buffer (Becton Dickinson Cat #554657) was added to all wells of each plate. The plates were centrifuged at 300×G for 5 minutes and the medium was removed from the wells. 200 μl of staining buffer was added to all wells of each plate. The plates were centrifuged at 300× G for 5 minutes and the medium was removed from the wells. 50 μl of 2 μg/ml AlexaFluor647-labeled goat anti-human Fc was added to all wells of the plates and the plates were incubated for 30 minutes at 4° C. 150 μl of staining buffer was added to all wells of each plate. The plates were centrifuged at 300× G for 5 minutes and the medium was removed from the wells.

T2 sequence (Q04609 whole entry): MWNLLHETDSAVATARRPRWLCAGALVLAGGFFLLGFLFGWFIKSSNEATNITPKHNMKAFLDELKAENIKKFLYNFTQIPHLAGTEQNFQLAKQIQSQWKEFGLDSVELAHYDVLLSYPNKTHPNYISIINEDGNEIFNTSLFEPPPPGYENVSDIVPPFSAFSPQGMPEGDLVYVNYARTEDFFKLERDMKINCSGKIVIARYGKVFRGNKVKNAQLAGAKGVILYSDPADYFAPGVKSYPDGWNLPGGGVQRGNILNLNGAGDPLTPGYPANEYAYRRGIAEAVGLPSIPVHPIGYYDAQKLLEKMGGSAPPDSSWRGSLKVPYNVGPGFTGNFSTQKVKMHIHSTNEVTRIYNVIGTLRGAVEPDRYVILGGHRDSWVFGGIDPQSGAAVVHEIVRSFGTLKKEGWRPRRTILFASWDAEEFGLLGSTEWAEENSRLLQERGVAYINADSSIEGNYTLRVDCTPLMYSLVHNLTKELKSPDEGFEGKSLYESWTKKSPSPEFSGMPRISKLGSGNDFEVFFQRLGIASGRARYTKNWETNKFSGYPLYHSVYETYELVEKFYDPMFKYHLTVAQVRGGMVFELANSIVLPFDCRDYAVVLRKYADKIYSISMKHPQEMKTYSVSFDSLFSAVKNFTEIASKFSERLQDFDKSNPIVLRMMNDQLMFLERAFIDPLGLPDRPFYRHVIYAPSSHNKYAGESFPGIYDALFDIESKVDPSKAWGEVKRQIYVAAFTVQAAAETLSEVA

Binder | EC50
B8 | 4.56 nM
B9 | 60 nM
B10 | 60 nM

The binders below were run against T1, Human CD3 epsilon (CD3ε), on primary … (assay: cell-based or functional assay).

Binder | H929 Killing EC50
B1 | 10000 pM
B2 | 100 pM
B3 | 4360 pM
B4 | 69 pM
B5 | 182 pM
B6 | 806 pM
B7 | 35.4 pM

The binders below were run against T2, human PSMA on prostate cancer cell … (assay: flow cytometry on 22RV1 cells).
Procedure: as §1

Binder | EC50
B8 | 3.42 nM
B9 | 60 nM
B10 | 60 nM

What follows are binders tested against T3, recombinant human PSMA (human, UniProt Q04609 44-750) (assay: SPR (Biacore 8K), antibody captured on anti-Fc, PSMA in solution).
T3 construct: also called hu PSMA; prostate-specific membrane antigen
Procedure: The binding affinity of anti-PSMA to the recombinant human, cynomolgus or mouse PSMA was determined by surface plasmon resonance (SPR) using a Biacore 8K instrument\. […] The association and dissociation were monitored for 3 and 15 minutes, respectively, using a flow rate of 50 μL/min. Raw binding data was referenced by subtracting the analyte binding signals from blanks and analyzed using a 1:1 Langmuir binding model using the Biacore Insight evaluation software to obtain the kinetics which were used to calculate the binding affinity. The anti-PSMA were captured using an anti-human Fc antibody and the antigens were injected in solution.

T3 sequence (Q04609 44-750 limits assumed): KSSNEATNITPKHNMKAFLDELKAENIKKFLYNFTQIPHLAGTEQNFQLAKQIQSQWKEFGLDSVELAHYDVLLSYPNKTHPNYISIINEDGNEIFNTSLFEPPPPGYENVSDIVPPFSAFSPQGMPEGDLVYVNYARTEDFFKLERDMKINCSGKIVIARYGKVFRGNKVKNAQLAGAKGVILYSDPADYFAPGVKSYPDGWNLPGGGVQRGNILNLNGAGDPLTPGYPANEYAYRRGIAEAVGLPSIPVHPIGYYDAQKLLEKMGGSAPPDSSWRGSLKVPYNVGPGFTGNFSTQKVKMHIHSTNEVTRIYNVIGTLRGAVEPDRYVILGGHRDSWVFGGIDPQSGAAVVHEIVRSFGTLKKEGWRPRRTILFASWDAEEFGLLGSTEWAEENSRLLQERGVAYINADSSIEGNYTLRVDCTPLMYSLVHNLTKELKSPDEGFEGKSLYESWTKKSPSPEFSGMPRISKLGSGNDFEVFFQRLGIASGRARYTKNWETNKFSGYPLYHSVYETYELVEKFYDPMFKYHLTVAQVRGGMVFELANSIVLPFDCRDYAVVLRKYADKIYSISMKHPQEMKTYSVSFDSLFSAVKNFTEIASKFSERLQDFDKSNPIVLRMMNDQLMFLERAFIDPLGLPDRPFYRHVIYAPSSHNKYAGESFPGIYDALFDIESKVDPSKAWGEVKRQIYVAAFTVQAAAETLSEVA

Binder | Kd
B8 | ≤ 0.24 nM
B9 | 1.89 nM

Target: T1, Human CD3 epsilon (CD3ε), on primary …
Assay: cell-based or functional assay
Remark: another data set of the same source

Binder | EC50, Cytotoxicity
B1 | 10000 pM
B2 | 100 pM
B3 | 4360 pM
B4 | 69 pM
B5 | 182 pM
B6 | 806 pM
B7 | 35.4 pM
